Residue numbers refer to the chain shown, from its start.
B1: extracellular domain of human CD98hc (domain or fragment)
chain: RAPRCRELPAQKWWHTGALYRIGDLQAFQGHGAGNLAGLKGRLDYLSSLKVKGLVLGPIHKNQKDDVAQTDLLQIDPNFGSKEDFDSLLQSAKKKSIRVILDLTPNYRGENSWFSTQVDTVATKVKDALEFWLQAGVDGFQVRDIENLKDASSFLAEWQNITKGFSEDRLLIAGTNSSDLQQILSLLESNKDLLLTSSYLSDSGSTGEHTKSLVTQYLNATGNRWCSWSLSQARLLTSFLPAQLLRLYQLMLFTLPGTPVFSYGDEIGLDAAALPGQPMEAPVMLWDESSFPDIPGAVSANMTVKGQSEDPGSLLSLFRRLSDQRSKERSLLHGDFHAFSAGPGLFSYIRHWDQNERFLVVLNFGDVGLSAGLQASDLPASASLPAKADLLLSTQPGREEGSPLELERLKLEPHEGLLLRFPYAA
B2: ATV^CD98hc.6.8:DNP (designed binder)
chain: DKTHTCPPCPAPELLGGPSVFLFPPKPKDTLMISRTPEVTCVVVDVSHEDPEVKFNWYVDGVEVHNAKTKPREEQYNSTYRVVSVLTVLHQDWLNGKEYKCKVSNKALPAPIEKTISKAKGQPREPQVYTLPPSRDELTKNQVSLTCLVKGFYPSDIAVLWNSRFVLENNYKTTPPVLDSDGSFFLYSKLTVDKSRWQQGEIFACNVYHEALHNHYTFKNLALSPGK
B3: TV6.6 as the ATV^CD98hc:DNP clone (designed binder)
chain: B2 chain with E201N
B4: extracellular domain of cynomolgus CD98hc (domain or fragment)
chain: ELPAQKWWHTGALYRIGDLQAFQGHGSGNLAGLKGRLDYLSSLKVKGLVLGPLHKNQKDDVAQTDLLQIDPNFGSKEDFDNLLQSAKKKSIRVILDLTPNYRGENLWFSTQVDSVATKVKDALEFWLQAGVDGFQVRDIENLKDASSFLAEWENITKGFSEDRLLIAGTNSSDLQQIVSLLESNKDLLLTSSYLSDSSFTGEHTKSLVTQYLNATGNRWCSWSLSQAGLLTSFLPAQLLRLYQLMLFTLPGTPVFSYGDEIGLKAAALPGQPVEAPVMLWDESSFPDIPGAVSANMTVKGQSEDPGSLLSLFRQLSDQRSKERSLLHGDFHTFSSGPGLFSYIRHWDQNERFLVVLNFGDVGLSAGLQASDLPASASLPTKADLVLSTQPGREEGSPLELERLKLEPHEGLLLRFPYVA

Assays:
Experiment in all cases: SPR
TV6.d12 = molecular target: TV6.d12
TV6.d6 = molecular target: TV6.d6
TV6.d3 = molecular target: TV6.d3
TV6.38 = molecular target: TV6.38
ATV^CD98hc.6.29:DNP = ATV^CD98hc.6.29:DNP (human, UniProt P01857 = IgG part)
[1] = molecular target: B4
ATV^CD98hc.6.39 = ATV^CD98hc.6.39 (human, UniProt P01857 = IgG part)

Row | Kd (TV6.d12) | Kd (TV6.d6) | Kd (TV6.d3) | Kd (TV6.38) | Kd (ATV^CD98hc.6.29:DNP) | Kd [1] | Kd (ATV^CD98hc.6.39) | Binder
1 | 2100 nM | 550 nM | 275 nM | 43 nM | 20 nM |  |  | B1
2 |  |  |  |  |  | 890 nM |  | B2
3 |  |  |  |  |  | 2100 nM |  | B3
4 | 6000 nM | 5000 nM | 2500 nM | 250 nM |  |  | 485 nM | B4
